Data set [1] concerns the target Tth xynB3 β-xylosidase from Thermotoga thermarum DSM 5069 (Thermotoga thermarum DSM 5069). Put plainly: SEC; Superdex 200 10/30 GL column on an ÄKTA FPLC system; MW calculated from the calibration curve of the gel filtration column; oligomerization state of the purified native protein.
Substrate in data set [2]: O=[N+]([O-])c1ccc(O[C@@H]2OC[C@@H](O)[C@H](O)[C@H]2O)cc1
The experiment in a line: purified protein. Type of data set: biochemical, Pseudothermotoga thermarum. The following applies: 50 mM imidazole-potassium buffer pH 6.0, 85°C (standard conditions; text says optimal conditions).

Substrate in data set [3]: O=[N+]([O-])c1ccc(O[C@@H]2O[C@@H](CO)[C@H](O)[C@H]2O)cc1
Put plainly: purified protein. In kind it is biochemical, Pseudothermotoga thermarum. The following applies: 50 mM imidazole-potassium buffer pH 6.0, 85°C (standard conditions; text says optimal conditions).

Turning to “Tth xynB3 β-xylosidase from Thermotoga thermarum DSM 5069 (enzyme)”, in data set [1], the stoichiometry N is 5.

B1: Tth xynB3 β-xylosidase (Pseudothermotoga thermarum DSM 5069) (protein)
chain: MDLYKNPNVPAKVRAKDLLSKMTLEEKIAQLGSVWSYELLTEDGKFSVEKAKEILKHGIGQITRPGGATNFEPPEVAKLVNEIQKFLVENTRLGIPAIMHEECLAGYMGLGATIFPQPIGMASTWDPELVEKITSAIREDLRKLGITQGLAPVLDVARDPRWGRTEETFGESPYLVAKMGVAYVKGLQGSDITKGVVATGKHFAGYSASEGGKNWAPTNIPPRELREVFLYPFEAAVKEAGLLSIMNSYSEIDGIPCASNRELLTDILRRTWGFEGIVVSDYFAVDMLAAYHRMAKNKAEAAKYALEAGIDIELPKTDCYLHLKSLVENGIISEKLLDEAVLRVLTLKFLLGLFENPYAEGGSLNDHNDIALEASRKSIVLLKNNGILPLKNDVKIALVGPTANDVRNLLGDYSYLVHIKTLLENVNATTFNAPKFNLKKVEELVEAHLKKIPSILAEFAKRAKEIYYAKGCDITDPSREGFAEALEAAKKADVVVAVVGDRSGLTIECTSGESRDMANLKLPGVQEEFILELTKVGKPIVVVLVTGRPYSLKAFVNKVNAIVQLWLPGETGAQALAEVIFGQVNPSGKLPISFPASAGQIPVFHYVKPSGGRSCWHGNYVDEDVKPLFPFGHGLSYTTFSYTNLRIEQQEIPIAGSVKLKVDVQNTGEIYGEEVVQLYISREHASVTRPVKELKGFARVKLQPKETKTVVFEIHTDVLAYYDRDMKLVVEPGEYKVLIGSSAEDIRCQGNFKVVGEKRLVQDNRVFFTNTKIE
notes: full length, 774 residues (2,322 bp), pET-20b NdeI/XhoI in E. coli BL21 (DE3), Ni-NTA purified after heat treatment; theoretical monomer 85,129 Da; 5-mer in solution (422,474 Da); primers […]; (N-terminal MDLYKNPNV)
Consider B1, for which the values for the Michaelis constant (Km) in the data set “purified protein [2]” and in the data set “purified protein [3]” were 270 µM and 210 µM, respectively.

Source of the values: publication PMC3621209, “Biochemical properties of a novel thermostable and highly xylose-tolerant β-xylosidase/α-arabinosidase from Thermotoga thermarum” (Biotechnology for Biofuels, 2013).
